These results are taken from publication PMC8629192.

The target of the assay is spike, depending on domain and variant. Briefly: ELISA.

A word on the Kd: it is the equilibrium constant for the complex coming apart. A lower Kd goes with higher affinity.

Sequence of LRRC15-Fc (Q8TF66 22-538): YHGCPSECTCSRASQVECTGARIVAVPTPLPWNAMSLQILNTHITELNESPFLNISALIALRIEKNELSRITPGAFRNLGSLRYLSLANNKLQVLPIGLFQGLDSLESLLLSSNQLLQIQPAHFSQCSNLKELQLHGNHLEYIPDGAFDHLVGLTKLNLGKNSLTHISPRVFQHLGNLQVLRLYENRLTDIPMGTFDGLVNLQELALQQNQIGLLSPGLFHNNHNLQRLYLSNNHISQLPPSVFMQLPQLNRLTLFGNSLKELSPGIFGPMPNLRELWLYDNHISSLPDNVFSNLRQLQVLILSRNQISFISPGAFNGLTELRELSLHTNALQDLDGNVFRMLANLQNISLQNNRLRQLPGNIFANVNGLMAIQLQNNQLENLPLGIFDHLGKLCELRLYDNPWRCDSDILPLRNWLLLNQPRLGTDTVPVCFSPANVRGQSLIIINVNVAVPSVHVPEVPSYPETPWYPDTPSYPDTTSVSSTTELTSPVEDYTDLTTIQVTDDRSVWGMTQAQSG

Substance “LRRC15-Fc (from UniProt Q8TF66) (Fc fusion)” came in with a Kd of 43 to 148 nM.
